PMC7316729, “The cryo-EM structure of the bacterial flagellum cap complex suggests a molecular mechanism for filament elongation” (Nature Communications, 2020)
Where “and” joins values, the source holds several entries; their conditions need not be identical. Equal entries are not always repeated.

How the values were obtained:
[1] = target: T1, FliD from Pseudomonas aeruginosa, full length (P. aeruginosa), Q9K3C5; assay: negative-stain TEM with 2D classification; purified protein on carbon-coated copper grids, 0.75% uranyl formate; ~3500 particles for FliDsm and 2700 for FliDpa, 2D class averages; conditions: remark: other sources report otherwise
T1 chain: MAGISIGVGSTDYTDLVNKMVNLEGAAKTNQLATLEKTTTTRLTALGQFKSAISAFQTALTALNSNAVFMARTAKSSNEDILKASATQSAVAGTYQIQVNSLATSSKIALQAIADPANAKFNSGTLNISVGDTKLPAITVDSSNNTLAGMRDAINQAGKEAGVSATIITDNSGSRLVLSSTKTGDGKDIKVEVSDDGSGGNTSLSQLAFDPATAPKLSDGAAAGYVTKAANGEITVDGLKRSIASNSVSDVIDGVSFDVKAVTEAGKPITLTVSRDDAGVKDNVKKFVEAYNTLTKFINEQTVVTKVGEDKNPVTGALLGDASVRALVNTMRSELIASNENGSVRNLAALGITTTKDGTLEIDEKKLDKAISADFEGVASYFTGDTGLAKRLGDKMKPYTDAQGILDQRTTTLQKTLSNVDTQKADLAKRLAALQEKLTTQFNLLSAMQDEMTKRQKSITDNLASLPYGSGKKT

[2] = target: the molecule itself; assay: as above
[3] = target: the molecule itself; assay: cryo-EM structure; purified FliDcj at 1 mg/ml vitrified on holey carbon grids; protein in 50 mM HEPES 150 mM NaCl pH 7; D5 symmetry (full map, 4.7 Å), C5 (head map, 5.0 Å)

B1: FliD from Pseudomonas aeruginosa, full length, Q9K3C5 1-474 (natural protein)
chain: MAGISIGVGSTDYTDLVNKMVNLEGAAKTNQLATLEKTTTTRLTALGQFKSAISAFQTALTALNSNAVFMARTAKSSNEDILKASATQSAVAGTYQIQVNSLATSSKIALQAIADPANAKFNSGTLNISVGDTKLPAITVDSSNNTLAGMRDAINQAGKEAGVSATIITDNSGSRLVLSSTKTGDGKDIKVEVSDDGSGGNTSLSQLAFDPATAPKLSDGAAAGYVTKAANGEITVDGLKRSIASNSVSDVIDGVSFDVKAVTEAGKPITLTVSRDDAGVKDNVKKFVEAYNTLTKFINEQTVVTKVGEDKNPVTGALLGDASVRALVNTMRSELIASNENGSVRNLAALGITTTKDGTLEIDEKKLDKAISADFEGVASYFTGDTGLAKRLGDKMKPYTDAQGILDQRTTTLQKTLSNVDTQKADLAKRLAALQEKLTTQFNLLSAMQDEMTKRQKSITDNLASLPYGSGKKT
Work on B1 yielded a percent of particles that are pentamers [1] of 25.5% and a stoichiometry N [1] of 5.

B2: FliD from Serratia marcescens, full length (natural protein)
chain: MATISSLGLGSGLDLNGLLDKLTKAEQQRLTPYTTKQSSYNAQLTGYGTLKGALEKFDNLSKEMAKEDFFKATTATEHDAFKITTNAKAVPGNYVVEVNKLAQAQTLTTQAKVSDQGAKLGAEGVTDRSLTITAGNPPKETKIPLSDDQTSLVELRDAINGAKAGVTASIMRVGDNDYQLAVSSSTTGENNKISLQVDNDDQLGDILNYNATRGTGTAMKQTVAPQDAELTVNGTAIKRSTNSISDALQGVTIDLKTKTKTDEPQHLVISTNTAGTTDKIKEWVDSYNSLLDTFNALSKFTPVKTGEAPNPTNGPLLGDNTLRGIQSSIKSALSAAQDNPELKGLGNLGISTNTKTGKLEIDSAKLKKAMDEKPDQVSNFFVGNGKDTGMATEIHNEIQSYIKSGGIIENSTKSINTNLDRLNSQITTVTASIQNTIDRYKQQFVQLDTMMSKMNGTSNYLAQQFK
notes: FliD (flagellar cap protein) of Serratia marcescens; gene codon-optimised for E. coli, synthesised and sub-cloned into pET28a; The head domain of this protein is PDB 5XLJ (cited); also called FliDsm; source: E. coli BL21-CodonPlus(DE3)-RIL, purified (Ni-NTA, Superdex 200 SEC)
B2 was tested, and the “stoichiometry N” value [2] was 5.

B3: FliD from Campylobacter jejuni, full length (flagellum cap protein) (natural protein)
chain: MAFGSLSSLGFGSGVLTQDTIDKLKEAEQKARIDPYTKKIEENTTKQKDLTEIKTKLLSFQTAVSSLADATVFAKRKVVGSISDNPPASLTVNSGVALQSMNINVTQLAQKDVYQSKGLANDGGFVNAQLNGTADLTFFSNGKEYTVTVDKNTTYRDLADKINEASGGEIVAKIVNTGEKGTPYRLTLTSKETGEDSAISFYAGKKDSNGKYQKDINAEKIFDDLGWGLDVSASIDPDKDKKGYGIKDASLHIQTAQNAEFTLDGIKMFRSSNTVTDLGVGMTLTLNKTGEINFDVQQDFEGVTKAMQDLVDAYNDLVTNLNAATDYNSETGTKGTLQGISEVNSIRSSILADLFDSQVVDGTTEDANGNKVNTKVMLSMQDFGLSLNDAGTLSFDSSKFEQKVKEDPDSTESFFSNITKYEDINHTGEVIKTGSLSKYLNSNGGNTNGLEFKPGDFTIVFNNQTYDLSKNSDGTNFKLTGKTEEELLQNLANHINSKGIEGLKVKVESYNQNNVTGFRLNFSGDGSSDFSIKGDANILKELGLSDVNITSKPIEGKGIFSKLKATLQEMTGKDGSITKYDESLTNDIKSLNTSKDSTQAMIDTRYDTMANQWLQYESILNKLNQQLNTVTNMINAANNSNN
notes: FliD (flagellar cap protein, HAP2) of Campylobacter jejuni; gene codon-optimised for E. coli, synthesised and sub-cloned into pET28a; printed numbering runs to residue 643 (C-terminus 577-643); The D4 domain was not built in the model 6SIH; also called FliDcj; HAP2; source: E. coli BL21-CodonPlus(DE3)-RIL, purified (Ni-NTA, Superdex 200 SEC)
B3 was tested, and the “stoichiometry N” value [3] was 10 and 5.
